Test results published in the nanobody polyreactivity screen of Harvey et al. (2022).

Assay: yeast display, Sf9 membrane polyspecificity reagent, FACS + sequencing; frameworks hold sequencing errors
Method in brief: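 Galactose-induced (36–48 hours) yeast carrying a synthetic nanobody display library were exposed to 10% biotinylated, detergent-solubilized Sf9 membrane reagent at 4 °C for 1 hour. FACS followed streptavidin microbead enrichment, using low and high (top ~1%) gates for expression (anti-HA) and reagent binding (streptavidin). Colony PCR, MiSeq 2 × 250 sequencing and CDR-length filtering followed. Labels for polyreactivity reflect the gate of origin.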

Row | Sequence | polyreactivity (PSR sort gate)
1 | QVQLVESGGGLVQAGGSLRLSCAASGSIFKGNAMGCYRQAPWKESEMVAAISGGGGSTYYADSVKGRFTISRDNAKNTVYLQMYSLKPEDTAVYYCAARYYESPGDRSGFRYGYWGQGTQVTVSS | high polyreactivity
2 | KVQLVESGGGLVQAGGSLGLSCAASGSIFPSNFMGCYRQAPGKERELFAAISNTGSTYYADSVKGRVTISRDNAKNTVYLQMNSLKPEDTAVYYCAAEYWSYAHGGQLYGYDYWGQGSQVTVSS | low polyreactivity
3 | QVQLVESGGGLVQAGGSLRLSCAASGFTFRLYVMGWYIQAPGKERELVAAISSRGGSTYYADSLKGRFTISRDNAKNTVNLQMNSLKPEDTAVYYCAADRPRGRETVDYWGQGTQVTVSS | high polyreactivity
4 | QGQLVESGGGLVQAGGSLRLSCAASGSIFSKNALGWYRQAPGRERELVAAITSGASTNYADSVKGRFTISRDNAKNTVYLQMNSLKPEDTAGYYCAAKRNGFWYGYWGQGTQVTVSS | low polyreactivity
5 | QVQLVESGGGLVQAGGSLRLSCAASGFIFSTYAMGWYRQAPGKERELVAAITTSGSSTYYADSVKGRFTISRDNAKNTVYLQMNSLKPEDTAVYYCNAKYGYSAATDRGNYWGQGTQVTVSS | high polyreactivity
6 | QVQLVESGGGLVQARRSLRLSCAASGNIFWRNAMGWYRQAPGKERELVAAISRRAVSTYYADSVKGRFTISRDNAKNTVYLQMNSLKPEDTAVYYCAARLGGENDYWGQGTQVTVSS | high polyreactivity
7 | QVQLVESGGGIVQAGGSLRLSCAASGFTFWVYAMGWSRQAPGNEWQLVAAISARGGSTYYADSVKVRFTISRDNAKNTVYLQMNSLKPVDTEVYYCAAEPSGKRSKFYYWGHGTQVTVSS | high polyreactivity
8 | QVQLVESGGGLVQAGGSLRLSCAASGSTFRRNAMGWYRQAPGKERELVAAISSSGGSTYYADSVKGRFTISRDNAKNTVFLQMNSLKPEDTAVYYCAAGYPTLRGYYYWGQGTQVTVSS | low polyreactivity
9 | QVQLVESGGGLVQAGGSLRLSCAASGSTFTVNAMGWYRQAPGKERELVAVIRKSGTSTYYADSVKGRFTISRDNAKNTVYFQMNSLKPEDTAVYYCAGGGPSTLDDYWGQGTQVTVSS | low polyreactivity
10 | QVQLVESGGGLVQAGGSLRLSCAASGSIFIPYAMGWYRQAPGKERELVAAISGSGGSTYYADSVKGRFTISRDNAKNTVYLQMNSLKPEDTAVYYCNAVYRRSKYYFSQGYDYWGQGTQVTVSS | high polyreactivity
11 | QVQLQESGGGLVQAGGSLRLSCAASGSIFDTPTMGWYRQAPGKERELVASIAYDDNTYYADSVKGRFTISRYNAKHTVYLQMNSLKPGDTAVYYCAVTDRIYYYFVYWGQGTRVTVSS | high polyreactivity
12 | QVQLVESGGGLVQAGGSLRLSCAASGYIFYYYAMGWYRQAPGKESELVAAISSTVSTNYADSVKGRFTISRDNAKNTVYLQMNSLKPEDSAVYYCAAAQRVNHVWYDYWGQGTQVTVSS | low polyreactivity
13 | QVQLVESGGVLVQAGGSLRLTCAASGSNFVTNAMGWYRQAPGKERELVAAISVSGGSTYYADSVKGRFTISRDNAKNTVYLQMNSLKPEDTAVYYCNTVRSPAGHDYWGQGTQVTVSS | low polyreactivity
14 | QVQLVESGGGLVQAGGSLRLSCAASGITFWKYTMGWYIPAPGKERELVASIRIGGSTYYADSVKGRFTISRDNAKNTVYLQMNSLKPEDTAVYYCAAKGIYGLQGSPRSGYYYWGQGTQVTVSS | high polyreactivity
15 | QVQLVESGGGLVQAGGSLRLSCAASGSTFYKYGMGRNTQAHGKERELVAAISGSGDSTYYADSVKGRFTISRDNAKNSVYLQMNSLKPEDTAVYYCNAGPWCYLHEYDYWGQGTQVTVSS | low polyreactivity
16 | QVQLVESGGGLVQAGGSLRLSCAASGSIIGTYAMGWYRQAPGKERELVAAISSSGGRTYYADSVKGRFTISRDNAKNTVYLQMNSLKPEDTAVYYCNTRPGTVFRAGGDYWGQGTQVTVSS | high polyreactivity
17 | QVQLVESGGGLVQAGGILRLSCAASGRIINIYAMGWYRQAPGKEREMVAAISGSGGRTSYADSVKGRFTFSRDNAKNTVYLQMNILKPEDTAVYYCAADYSYYTSFRYDYWGQGTQVTVSS | low polyreactivity
18 | QVQLVESGGRLVQAGGSLRLSCAASGRTFRPYAMGWYRQAPGKERELVAAISSRGSSTYYADSVKGRFTISRDNAKNTVYLQMNSLKPEDTAVYYCAARSYWGGLRYDYWGQGTQVTVSS | high polyreactivity
19 | QVQLVESGGGLVQAGGSLRLSCAASGSTFNTYAMGWYRQAPGKERELVAAITWRGGRTYYADSVKGRFTISRDNAKNTVYLQMNSLKPEDTAVYYCAARRTYYSRKPRFDYWGQGTQVTVSS | high polyreactivity
20 | QVQLVESGGGLVQAGGSLRLSCAASGSIFDYYAMGWYRQAPGKERELVASINSSGTGTYYADSVKGRFTISRDNAKNTVYLQMNSLKPEDTAVYYCATRQAVGYSSGRGYGYWGQGTQVTVSS | low polyreactivity
21 | QVQLVDSGGGLVQAGGSLRLSCAASGRIFYAYAMGGYRQAPGKERELVARISASGGNTYYADSVKGRFTISRDNAKNSVYLQMNSLKPEDTAVYYCNKLFWYGRQYDYWGQGTQVTVSS | high polyreactivity
22 | QVQLVESGGGLVQAGGSLRLSCAASGSIFPFNAMGCYRQAPGKERELVAAISYSGGSTYYADSVKGRFTISRDNAKNTVYLQMTRLKPEDTAVYYCNRLLRRHLYIFYYWGQGTLVTVSS | high polyreactivity

Row | Sequence | polyreactivity (PSR sort gate)
23 | QVQLVESRGCLVQAGGSLRLSCAASGSISIKNAMGWYRQAPGKERELVATITYNGGSTYYADSVKGRFTISRDNAKNTVYLQMNSLKPEDTAVYYCARDAFEPYDVGEYYYWGQGTQVTVSS | low polyreactivity
24 | QVQLVESGGGLVQAGGSLRLSCAASGIIFKSNAMGWSRQAPGKERELVAAIRSSGSTNYADSVKGRFTISRDNAKNTVYLQLNSLKPEDTAVYYCAVSSWSVWGHYYWGQGTQVTVSS | high polyreactivity
25 | QDQLVESGGGLVQAGGSLRLSCAASGITFNAYVMGWYRQAPGKERELVAAISVSDDYTYYADSVKGRFTISRDNAKNTVYLQINSLKPEDTAVYYCAAEWWDVIAPYDYWGQGTQVTVSS | low polyreactivity
26 | QVQLVESGGGLVQAGGSLRLSCAASGFNFPYNAMGRYRQAPGKERELVAAITSGSNTYYADSVKGRFTISRDNAKNTVYLQMNSLKPEDTAVYYCAARGHGAYGYWGQGTQVTVSS | low polyreactivity
27 | QDQLVESGGGLVQAGGSLRISCAASGGTFKSYAMGWYREAPGKERELVATITRDGRTNYADSVKGRFTISRDNAKNTVYLQMNSLKPEDTAVYYCNADYWSVWIALEFTVDYWGQGTQVTVSS | low polyreactivity
28 | QFQLVESGGGLVQAGGSLRLSCAASGRTFQLNAMGWYRQAPGKERELVAAISTRGGSTNYADSVKGRFTISRDNAKNTVYLQMNRLKPEDTAVYYCAKDPSFTRGFKEGGGYDYWGQGSQVTVSS | high polyreactivity
29 | QVQLVESGGGLVQAGGSLRLSCDASGSIFPYYAMGWYRQAPGKERELVAAITSSDGITYYADSVKGRFTISRDNAKNTVYLQMNSLKPEDTAVYYCAAEVYVADWLTEFYYWGQGTQVTVSS | high polyreactivity
30 | QVQLVESGAGLVQAGGSLRLSCAASGFIFVKYVMGWYRQAPGKERELDATITNGVSTNYADSVKGRFTISRDNAKNTVYLQMNSLKPEDTAVYYCNTGSTAWYFSGDYWGQGTQVTVSS | low polyreactivity
31 | QVQLVESGGGLVQAGGSLRLSCAASGSIFYGYAMGWYRQAPGKERELVARITGSGGDTSYADSVKGRFTISRDNAKNTVYLQMNSLKPEDTAVYYCAKRGYHFLTKYDYWGQGTQVTVSS | low polyreactivity
32 | QVQLVESGGGLVQAGGSLRLSCAASGRIFRGNAMGWYRQAPGKERELVAAILTGVSTYYADSVKGRFTISRDNAKNTVYLQMNSLNPEDTAVYYCADERPSRRSVYEYWGQCTQVTVSS | low polyreactivity
33 | QVQLVESGGGLVQAGGSLRLICAASGSTFDVNAMGWYRQAPGKERELVAAISWNSGSTYYADSVKGRFTISRDNAKNTVYLQMNSLKPEDTAVYYCAATYGTGRRSKYGYWGQGTQVTVSS | high polyreactivity
34 | QVQLVESGGGLFQAGGSLRLSCAASGTTLVRYAMGWYRQAPGIERELVASISYSGGSTHYADSVKGRFTISRDNAKNTVYLQMNSLKPEDTAVDYWAARPYYSWGGHYYWGQGTQVTVSS | high polyreactivity
35 | QVQLVESGGGLVQAGGSLRLSCAASGFTFSGYDMGWYRQAPGKERELVAGISSGGVSTTYADSVKGRFTISRDNAKNTVYLQMNSLKPEDTAVYYCSTSGPQYYSRNFDYWGQGTQVTVSS | low polyreactivity
36 | QVQLVESGAGLVQAGGSLRLSCAASGIIFTDYAMGWYRQAPGKERELVAANSSGGGSTYYADSVKGRFTISRDNAKNSVYLQLNSLKPDDTAVYDCAAQSSGSYGFDHWGQGTQVTVSS | high polyreactivity
37 | QVQLVESGGGLVQAGGSLRLSCAAYGYIFRLYAMGWYRQAPGKERELVAGISTGGRTNYADSVKGRFTISRDNAKNTVYLQMNSLKPEDTAVYYCAAAWHTAYWVVSDSLGGGYWGQGTQVTVSS | low polyreactivity
38 | QVQLVESGGGLVQAGGSLRLSCAASGSTFTYYTMGWYRQAPGKERELVAAISRTTGSTYYADSVKGRFTISRDNAKNTVYLQLNSLKPEDTAVDYCAAQSYKILLYFIGTAGDGYWGQGTQVTVSS | low polyreactivity
39 | QVQLVESGGGLVQAGGSLRLSCAASGSIFSFYTMGWYRQAPGKERELVATISWRSGSTYYADSVKGRFTISRDNAKNTVYLQMNSLKPEDTAVYYCARSTSRYYYWGQGTQVTVSS | high polyreactivity
40 | QVQLVESGGGLVQAGGSLRLTCAASGSIFWGYALGWYRQAPGKERELVATIRNRGGSTYYADSVKGRFTISRDNAKNTVYLQMNSLKPEDTAVYYCAADEGGFWWTYPYDSWGQGTQVTVSS | low polyreactivity
41 | QVQLVESGGCIVQAGGSLRLSCAASGNIFYRNAMGWYRQAPGKERELVAAISSGGITYYADYVKGRFTISRDNAKNTVYLQMNSLKPDDTAVYYCAAYIRNCRATYEYWGPGTQVTVSS | high polyreactivity
42 | QVQLVESGGGLVQAGGSLRLSCAASGYNFLRNAMGWYRQAPGKERELVAAISYSGGGTYYADSVKGRFTISRDNAKNTVYLQMNSLKPEDTAVYYCNVAQRYYGNFWSESIEYDYWGLGTQVTVSS | low polyreactivity
43 | QVQLVESGGGLVQAGGSLRLSCAASGIIIRYYGMGWYRQAPGKERELVARIRWTGGSTYYADSVKGRFTISRDNAKNTVYLQMNSLKPEDTAVYYCNADPWWRFDYWGQGTQVTVSS | low polyreactivity
